From publication PMC5155031
Each block holds one binder with its values, some of them ahead of it.

Columns and labels:
Test in all cases: dose-dependent binding with Scatchard plot analysis
[1] = target: mIgCLL5-1, CLL-derived monoclonal Igγ1 antibody of clonotype CLL5-1
[2] = target: mIgCLL6-2, CLL-derived monoclonal Igγ1 antibody of clonotype CLL6-2
[3] = target: mIgCLL6-1, CLL-derived monoclonal Igγ1 antibody of clonotype CLL6-1
[4] = target: mIgCLL5-2, CLL-derived monoclonal Igγ1 antibody of clonotype CLL5-2
[5] = target: mIgCLL3-1, CLL-derived monoclonal Igγ1 antibody of clonotype CLL3
[6] = target: mIgCLL3-2, CLL-derived monoclonal Igγ1 antibody of clonotype CLL3
[7] = target: mIgCLL2-2, CLL-derived monoclonal Igγ1 antibody of clonotype CLL2
[8] = target: mIgCLL2-1, CLL-derived monoclonal Igγ1 antibody of clonotype CLL2

Binder: CFSDDEWWC [pCLL5-1 mimotope]
Kd [1]: 7.08 nM

Binder: CPPQSVTEC [pCLL3-1 mimotope]
Kd [5]: 22.1 nM

Binder: CDVWHSAYC [pCLL3-2 mimotope]
Kd [6]: 5.64 nM

Binder: CKSYSVSLC [pCLL2-2 mimotope]
Kd [7]: 7.57 nM

Binder: CNTYSVSLC [pCLL2-1 mimotope]
Kd [8]: 10.8 nM

More lines, now with the values ahead:

Kd [2]: 22.7 nM
Binder: CTTVIPERC [pCLL6-2 mimotope]

Kd [3]: 57.5 nM
Binder: CNQDWHKKC [pCLL6-1 mimotope]

Kd [4]: 7.32 nM
Binder: CPPFTNYEC [pCLL5-2 mimotope]
